Experimental findings from publication PMC9138245 are described below.

The target in this experiment is HA-ezrin fused protein (human (cDNA from HEK293T cells)) (UniProt P15311).
Sequence of UniProt P15311 (P15311 whole entry, the tested form may be a part): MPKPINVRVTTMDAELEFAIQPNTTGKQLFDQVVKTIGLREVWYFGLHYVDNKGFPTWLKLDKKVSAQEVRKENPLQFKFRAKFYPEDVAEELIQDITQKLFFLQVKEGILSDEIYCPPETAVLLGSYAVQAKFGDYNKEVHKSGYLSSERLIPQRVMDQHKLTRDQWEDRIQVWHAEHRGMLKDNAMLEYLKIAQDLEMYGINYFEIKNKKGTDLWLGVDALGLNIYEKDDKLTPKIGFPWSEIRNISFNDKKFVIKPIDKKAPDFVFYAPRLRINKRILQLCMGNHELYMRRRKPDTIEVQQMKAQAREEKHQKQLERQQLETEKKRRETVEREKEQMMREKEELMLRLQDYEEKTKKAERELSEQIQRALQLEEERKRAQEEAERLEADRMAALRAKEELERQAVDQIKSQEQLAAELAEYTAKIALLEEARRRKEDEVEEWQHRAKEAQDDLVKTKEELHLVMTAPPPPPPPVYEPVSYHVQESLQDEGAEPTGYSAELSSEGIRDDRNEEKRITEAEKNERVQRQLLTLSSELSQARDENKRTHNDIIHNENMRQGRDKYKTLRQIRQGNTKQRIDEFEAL

As to “GFP-BifA fused protein (natural protein)”, the ratio of p-ezrin/total-ezrin in dHL60 cells under BifA treatment (10 μg/mL purified BifA), phos-tag gel and immunoblot, 0 to 2 h (ratio p-ezrin/total-ezrin) was 1.
